Key:
[1] = target: endogenously produced TGF-beta in the RPTEC and HRF co-culture system; assay: cell-based or functional assay
mature human TGF-beta 1 [2] = target: T1, mature human TGF-beta 1 (human, UniProt P01137 279-390); assay: cell-based or functional assay
mature human TGF-beta 2 = target: T2, mature human TGF-beta 2 (human, UniProt P61812 303-414); assay: cell-based or functional assay
T2 sequence: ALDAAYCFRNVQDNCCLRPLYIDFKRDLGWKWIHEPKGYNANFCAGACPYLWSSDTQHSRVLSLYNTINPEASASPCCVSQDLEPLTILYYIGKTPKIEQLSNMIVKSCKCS

mature human TGF-beta 3 [3] = target: T3, mature human TGF-beta 3 (human, UniProt P10600 301-412); assay: cell-based or functional assay
T3 sequence: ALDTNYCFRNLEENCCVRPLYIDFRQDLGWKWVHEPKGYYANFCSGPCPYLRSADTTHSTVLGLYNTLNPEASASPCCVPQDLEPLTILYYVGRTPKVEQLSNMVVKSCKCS

mature human TGF-beta 1 [4] = target: T1, mature human TGF-beta 1; assay: SPR Biacore T200, human TGF-beta amine-coupled (~20 RU), E. coli derived Fab as analyte; heterogeneous fit, component 2 (kd2; believed unoccluded)
Procedure: (§1) Human TGF-β isoforms 1, 2, and 3 (Peprotech) were immobilised on CMS Series S chip via amine coupling chemistry on Flowcell 2, 3 and 4 (respectively) to a level of approximately 20 RU. HBS-EP buffer (10 mM HEPES pH 7.4, 0.15 M NaCl, 3 mM EDTA, 0.05% Surfactant P20, GE Healthcare) was used as the running buffer. […] The surface was regenerated by 2×10 μL injection of 10 mM HCl at a flowrate of 10 uL/min.
(§2) Background subtraction binding curves were analysed using the T200 evaluation software (version 1.0; GE Healthcare) following standard procedures. Kinetic parameters were determined using heterogeneous fitting algorithm with RI=0), as described in Example 3, and the values are provided in Table 4.

mature human TGF-beta 3 [5] = target: T3, mature human TGF-beta 3; assay: as above
Procedure: as §1, §2

T1 sequence (P01137 279-390 limits assumed): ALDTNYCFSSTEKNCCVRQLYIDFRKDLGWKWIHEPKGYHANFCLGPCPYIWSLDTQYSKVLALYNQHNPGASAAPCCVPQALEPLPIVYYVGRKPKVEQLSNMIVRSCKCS

B1: humanised antibody 4856 Fab graft gL3gH13 (Fab, V domains shown)
VH: EVQLVESGGGLVKPGGSLRLSCAASGFSLSSYDMSWVRQAPGKGLEWIGIIYGGSGSTWYASWAKGRFTISRDSAKNSVYLQMNSLRAEDTAVYYCARGRDAGAGGSRNGYSLWGQGTLVTVSS
VL: AYDMTQSPSTLSASVGDRVTITCQASESIYSGLAWYQQKPGKAPKLLIYAASDLASGVPSRFSGSGSGTEYTLTISSLQPDDFATYYCQQTWTDGGIDNPFGGGTKVEIKR
notes: Human gamma-1 CH1 (G1m17) and human C-kappa (K1m3); also called 4856gL3gH13
Q: Which “Geo Mean IC50, Collagen I &III deposition, RPTEC and HRF co-culture” value [1] does the source give for B1 here?
A: Its value is 32.8 nM.

Q: And the “Geo Mean IC50, Collagen V deposition, RPTEC and HRF co-culture” value [1]?
A: The value was 56.3 nM.

Q: And the “Geo Mean IC50, Fibronectin deposition, RPTEC and HRF co-culture” value [1]?
A: Its value is 29.7 nM.

Q: And the “IC50 (N = 1), Collagen I &III deposition, RPTEC and HRF co-culture” value [1]?
A: The value was 22.4 nM.

Q: What about the “IC50 (N = 1), Collagen V deposition, RPTEC and HRF co-culture” value [1] of the same binder?
A: The value was 38.9 nM.

Q: And the “IC50 (N = 1), Fibronectin deposition, RPTEC and HRF co-culture” value [1]?
A: Its value is 32.6 nM.

Q: And the “IC50 (N = 2), Collagen I &III deposition, RPTEC and HRF co-culture” value [1]?
A: Its value is 48 nM.

Q: And the “IC50 (N = 2), Collagen V deposition, RPTEC and HRF co-culture” value [1]?
A: The value was 81.6 nM.

Q: And the “IC50 (N = 2), Fibronectin deposition, RPTEC and HRF co-culture” value [1]?
A: Its value is 27.1 nM.

Q: What about the “Geo Mean IC50, Collagen I &III deposition, RPTEC mono-culture + TGFB1” value (mature human TGF-beta 1 [2]) of the same binder?
A: Its value is 11.2 nM.

Q: And the “Geo Mean IC50, Collagen V deposition, RPTEC mono-culture + TGFB1” value (mature human TGF-beta 1 [2])?
A: The value was 43.7 nM.

Q: What about the “Geo Mean IC50, Fibronectin deposition, RPTEC mono-culture + TGFB1” value (mature human TGF-beta 1 [2]) of the same binder?
A: The value was 19.2 nM.

Q: And the “IC50 (N = 1), Collagen I &III deposition, RPTEC mono-culture + TGFB1” value (mature human TGF-beta 1 [2])?
A: The value was 5.1 nM.

Q: What about the “IC50 (N = 1), Collagen V deposition, RPTEC mono-culture + TGFB1” value (mature human TGF-beta 1 [2]) of the same binder?
A: The value was 13.1 nM.

Q: What about the “IC50 (N = 1), Fibronectin deposition, RPTEC mono-culture + TGFB1” value (mature human TGF-beta 1 [2]) of the same binder?
A: Its value is 12.6 nM.

Q: And the “IC50 (N = 2), Collagen I &III deposition, RPTEC mono-culture + TGFB1” value (mature human TGF-beta 1 [2])?
A: Its value is 13.8 nM.

Q: What about the “IC50 (N = 2), Collagen V deposition, RPTEC mono-culture + TGFB1” value (mature human TGF-beta 1 [2]) of the same binder?
A: Its value is 92.1 nM.

Q: And the “IC50 (N = 2), Fibronectin deposition, RPTEC mono-culture + TGFB1” value (mature human TGF-beta 1 [2])?
A: Its value is 57.4 nM.

Q: And the “IC50 (N = 3), Collagen I &III deposition, RPTEC mono-culture + TGFB1” value (mature human TGF-beta 1 [2])?
A: Its value is 19.8 nM.

Q: And the “IC50 (N = 3), Collagen V deposition, RPTEC mono-culture + TGFB1” value (mature human TGF-beta 1 [2])?
A: The value was 69.4 nM.

Q: What about the “IC50 (N = 3), Fibronectin deposition, RPTEC mono-culture + TGFB1” value (mature human TGF-beta 1 [2]) of the same binder?
A: Its value is 9.8 nM.

Q: And the “Geo Mean IC50, Collagen I &III deposition, RPTEC mono-culture + TGFB2” value (mature human TGF-beta 2)?
A: The value was 0.3 nM.

Q: And the “Geo Mean IC50, Collagen V deposition, RPTEC mono-culture + TGFB2” value (mature human TGF-beta 2)?
A: The value was 3.1 nM.

Q: And the “Geo Mean IC50, Fibronectin deposition, RPTEC mono-culture + TGFB2” value (mature human TGF-beta 2)?
A: Its value is 0.3 nM.

Q: And the “IC50 (N = 1), Collagen I &III deposition, RPTEC mono-culture + TGFB2” value (mature human TGF-beta 2)?
A: Its value is under 2 nM.

Q: What about the “IC50 (N = 1), Collagen V deposition, RPTEC mono-culture + TGFB2” value (mature human TGF-beta 2) of the same binder?
A: The value was 0.52 nM.

Q: And the “IC50 (N = 1), Fibronectin deposition, RPTEC mono-culture + TGFB2” value (mature human TGF-beta 2)?
A: The value was 0.16 nM.

Q: And the “IC50 (N = 2), Collagen I &III deposition, RPTEC mono-culture + TGFB2” value (mature human TGF-beta 2)?
A: Its value is 0.6 nM.

Q: And the “IC50 (N = 2), Collagen V deposition, RPTEC mono-culture + TGFB2” value (mature human TGF-beta 2)?
A: Its value is 10.5 nM.

Q: And the “IC50 (N = 2), Fibronectin deposition, RPTEC mono-culture + TGFB2” value (mature human TGF-beta 2)?
A: Its value is 0.76 nM.

Q: What about the “IC50 (N = 3), Collagen I &III deposition, RPTEC mono-culture + TGFB2” value (mature human TGF-beta 2) of the same binder?
A: The value was 0.13 nM.

Q: What about the “IC50 (N = 3), Collagen V deposition, RPTEC mono-culture + TGFB2” value (mature human TGF-beta 2) of the same binder?
A: The value was 5.29 nM.

Q: And the “IC50 (N = 3), Fibronectin deposition, RPTEC mono-culture + TGFB2” value (mature human TGF-beta 2)?
A: Its value is 0.22 nM.

Q: What about the “Geo Mean IC50, Collagen I &III deposition, RPTEC mono-culture + TGFB3” value (mature human TGF-beta 3 [3]) of the same binder?
A: Its value is 81.2 nM.

Q: And the “Geo Mean IC50, Collagen V deposition, RPTEC mono-culture + TGFB3” value (mature human TGF-beta 3 [3])?
A: Its value is 191 nM.

Q: What about the “Geo Mean IC50, Fibronectin deposition, RPTEC mono-culture + TGFB3” value (mature human TGF-beta 3 [3]) of the same binder?
A: The value was 82.1 nM.

Q: What about the “IC50 (N = 1), Collagen I &III deposition, RPTEC mono-culture + TGFB3” value (mature human TGF-beta 3 [3]) of the same binder?
A: Its value is 64.3 nM.

Q: What about the “IC50 (N = 1), Collagen V deposition, RPTEC mono-culture + TGFB3” value (mature human TGF-beta 3 [3]) of the same binder?
A: The value was 141 nM.

Q: What about the “IC50 (N = 1), Fibronectin deposition, RPTEC mono-culture + TGFB3” value (mature human TGF-beta 3 [3]) of the same binder?
A: The value was 51.5 nM.

Q: What about the “IC50 (N = 2), Collagen I &III deposition, RPTEC mono-culture + TGFB3” value (mature human TGF-beta 3 [3]) of the same binder?
A: The value was 124 nM.

Q: And the “IC50 (N = 2), Collagen V deposition, RPTEC mono-culture + TGFB3” value (mature human TGF-beta 3 [3])?
A: Its value is 336 nM.

Q: And the “IC50 (N = 2), Fibronectin deposition, RPTEC mono-culture + TGFB3” value (mature human TGF-beta 3 [3])?
A: Its value is 140 nM.

Q: And the “IC50 (N = 3), Collagen I &III deposition, RPTEC mono-culture + TGFB3” value (mature human TGF-beta 3 [3])?
A: The value was 67.2 nM.

Q: What about the “IC50 (N = 3), Collagen V deposition, RPTEC mono-culture + TGFB3” value (mature human TGF-beta 3 [3]) of the same binder?
A: Its value is 147 nM.

Q: What about the “IC50 (N = 3), Fibronectin deposition, RPTEC mono-culture + TGFB3” value (mature human TGF-beta 3 [3]) of the same binder?
A: The value was 76.8 nM.

Q: What about the koff (mature human TGF-beta 1 [4]) of the same binder?
A: Its koff is 5.56e-05 s⁻¹.

Q: And the koff (mature human TGF-beta 3 [5])?
A: The koff was 0.00339 s⁻¹.
